Results on one molecule are retold here after publication PMC10165364, “Pathological variants in TOP3A cause distinct disorders of mitochondrial and nuclear genome stability”.

Details in all cases: protein: recombinant; tags: N-terminal TEV-cleavable 6xHis, cleaved; label: 5' 32P; single strand
One data set concerns the target T1, TOP3A Ser810* (Homo sapiens, UniProt Q13472 16-809).
T1 sequence: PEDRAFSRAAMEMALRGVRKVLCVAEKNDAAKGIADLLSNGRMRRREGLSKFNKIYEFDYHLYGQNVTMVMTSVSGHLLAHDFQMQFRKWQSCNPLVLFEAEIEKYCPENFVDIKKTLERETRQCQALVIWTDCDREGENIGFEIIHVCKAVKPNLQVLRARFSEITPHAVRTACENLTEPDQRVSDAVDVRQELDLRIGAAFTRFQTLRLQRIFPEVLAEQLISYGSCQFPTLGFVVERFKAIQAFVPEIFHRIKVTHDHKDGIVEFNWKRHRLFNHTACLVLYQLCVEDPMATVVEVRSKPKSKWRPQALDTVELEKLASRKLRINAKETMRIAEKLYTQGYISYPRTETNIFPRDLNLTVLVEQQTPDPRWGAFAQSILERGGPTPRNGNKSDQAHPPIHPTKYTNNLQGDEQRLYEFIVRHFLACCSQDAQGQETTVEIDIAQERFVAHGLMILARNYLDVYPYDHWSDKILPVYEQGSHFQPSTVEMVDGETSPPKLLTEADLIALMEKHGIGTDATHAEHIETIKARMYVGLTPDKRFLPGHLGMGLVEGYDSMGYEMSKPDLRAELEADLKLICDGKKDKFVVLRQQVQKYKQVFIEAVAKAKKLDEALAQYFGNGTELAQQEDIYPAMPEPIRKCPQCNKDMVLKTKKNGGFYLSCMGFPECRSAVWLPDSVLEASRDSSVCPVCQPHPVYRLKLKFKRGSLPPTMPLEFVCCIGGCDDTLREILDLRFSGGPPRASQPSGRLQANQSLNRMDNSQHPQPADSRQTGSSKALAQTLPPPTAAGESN
Nature of the data set: EMSA; comparable to WT; 25 mM HEPES pH 7.5, 70 mM NaCl, 100 ug/ml BSA, 1 mM DTT, 10% glycerol; 10 fmol oligo, 0-250 fmol TOP3A in 20 ul; 37 C 15 min, then ice; 8% native PAGE in 0.5x TBE at 4 C.

Another data set concerns the target T2, TOP3A Met575Val (Homo sapiens, UniProt Q13472 16-934, M575V).
T2 sequence: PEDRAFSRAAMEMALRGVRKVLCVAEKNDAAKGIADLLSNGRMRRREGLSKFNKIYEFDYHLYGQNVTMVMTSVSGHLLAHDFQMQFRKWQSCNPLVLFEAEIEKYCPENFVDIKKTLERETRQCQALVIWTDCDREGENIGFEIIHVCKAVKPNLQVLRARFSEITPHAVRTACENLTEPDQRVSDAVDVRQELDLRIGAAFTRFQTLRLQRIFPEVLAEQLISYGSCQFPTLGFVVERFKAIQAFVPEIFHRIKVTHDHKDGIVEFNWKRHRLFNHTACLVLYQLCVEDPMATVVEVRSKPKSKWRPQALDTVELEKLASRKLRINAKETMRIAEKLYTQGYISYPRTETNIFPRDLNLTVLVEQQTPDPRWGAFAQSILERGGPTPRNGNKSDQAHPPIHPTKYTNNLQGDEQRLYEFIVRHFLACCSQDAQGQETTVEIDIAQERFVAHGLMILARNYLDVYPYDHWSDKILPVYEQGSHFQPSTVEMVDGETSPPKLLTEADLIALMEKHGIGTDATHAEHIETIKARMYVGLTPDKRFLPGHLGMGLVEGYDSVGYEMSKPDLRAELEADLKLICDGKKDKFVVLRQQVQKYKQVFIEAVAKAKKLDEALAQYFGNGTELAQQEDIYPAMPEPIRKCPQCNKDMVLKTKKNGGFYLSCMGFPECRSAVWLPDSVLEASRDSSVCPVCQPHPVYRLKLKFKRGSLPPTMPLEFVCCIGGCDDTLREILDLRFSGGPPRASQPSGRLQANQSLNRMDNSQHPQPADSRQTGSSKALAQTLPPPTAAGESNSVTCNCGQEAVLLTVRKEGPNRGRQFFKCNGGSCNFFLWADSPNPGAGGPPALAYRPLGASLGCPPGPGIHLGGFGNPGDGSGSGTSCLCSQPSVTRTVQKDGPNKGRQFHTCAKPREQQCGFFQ
Nature of the data set: EMSA; up to 250 fmol protein; 25 mM HEPES pH 7.5, 70 mM NaCl, 100 ug/ml BSA, 1 mM DTT, 10% glycerol; 10 fmol oligo, 0-250 fmol TOP3A in 20 ul; 37 C 15 min, then ice; 8% native PAGE in 0.5x TBE at 4 C.

The target in a further data set is T3, TOP3A Leu37Val (Homo sapiens, UniProt Q13472 16-934, L37V).
T3 sequence: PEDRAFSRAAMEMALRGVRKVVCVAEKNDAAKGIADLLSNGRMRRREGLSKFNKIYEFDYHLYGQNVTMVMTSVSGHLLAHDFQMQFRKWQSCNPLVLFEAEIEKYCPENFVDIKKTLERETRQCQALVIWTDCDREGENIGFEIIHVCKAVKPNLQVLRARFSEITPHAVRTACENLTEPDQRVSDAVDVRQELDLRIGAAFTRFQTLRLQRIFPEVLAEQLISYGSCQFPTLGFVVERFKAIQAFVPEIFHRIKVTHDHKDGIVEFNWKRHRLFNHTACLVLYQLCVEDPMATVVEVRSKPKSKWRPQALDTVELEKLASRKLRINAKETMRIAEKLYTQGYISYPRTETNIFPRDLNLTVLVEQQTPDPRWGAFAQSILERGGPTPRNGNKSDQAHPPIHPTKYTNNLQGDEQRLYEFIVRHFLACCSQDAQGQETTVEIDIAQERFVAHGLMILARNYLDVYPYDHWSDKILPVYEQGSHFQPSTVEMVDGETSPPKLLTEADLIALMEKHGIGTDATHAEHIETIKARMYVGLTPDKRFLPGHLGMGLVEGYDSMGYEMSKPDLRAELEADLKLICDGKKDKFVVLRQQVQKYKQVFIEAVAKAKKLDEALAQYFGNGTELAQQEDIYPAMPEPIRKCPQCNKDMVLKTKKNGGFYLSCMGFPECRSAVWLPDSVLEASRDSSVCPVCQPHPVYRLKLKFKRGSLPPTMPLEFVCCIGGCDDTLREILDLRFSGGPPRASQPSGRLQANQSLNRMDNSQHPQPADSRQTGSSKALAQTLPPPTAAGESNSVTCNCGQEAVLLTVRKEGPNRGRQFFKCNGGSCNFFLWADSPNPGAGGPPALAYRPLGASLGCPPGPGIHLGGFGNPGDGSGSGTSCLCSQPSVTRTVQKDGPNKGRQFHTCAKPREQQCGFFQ
The description is as above.

B1: EMSA substrate 80-mer (ssDNA)
DNA: ACCACATTAACAACATAAAACCCTCATTCACACGAGAAAACACCCTCATGTTCATACACCTATCCCCCATTCTCCTCCTA
On to B1, for which the binding result with TOP3A Ser810* is “binds”; with TOP3A Met575Val, “no binding”; with TOP3A Leu37Val it was “no binding”.
